Consider three molecules from US20240026407A1, “MODIFICATION OF SAPONINS” (GLAXOSMITHKLINE BIOLOGICALS SA, priority 2020, published 2024).

Where a chain is given by its changes, count along the chain named. Numbers in names are those of the source.

A short description of series [1]: Example 10: deglucosylation of saponins in crude bark extract (50%) using WT and engineered glucosidases G1 to G5. Format: biochemical, Quillaja saponaria. The note with it: 7 h, 50% CBE, 35 degC; for % Right Peak: starting CBE 26; for % Left Peak: starting CBE 30; for % Middle Peak: starting CBE 44. The protocol: Lyophilised powders from clarified cell lysate expressing glucosidases (from Example 8 WT glucosidase and engineered glucosidase polypeptides G1 to G5) and rhamnosidases (from Example 9 WT rhamnosidase and engineered rhamnosidase polypeptides R1 to R5) were dissolved in 200 mM sodium acetate aqueous solution at pH 5.8 to prepare the enzyme solutions at 4 fold the final reaction concentration as shown in Tables 19 and 20.
Each glucosidase solution was combined with an equal volume of 200 mM sodium acetate aqueous solution at pH 5.8 and separately with an equal volume of 200 mM sodium acetate aqueous solution at pH 5.8 containing 2 mg/ml rhamnosidase R5. This is a sufficient loading of rhamnosidase to effect complete hydrolysis of the relevant rhamnose moiety within 4 hours.
CBE was adjusted to pH of 6.0 to 6.2 with 2M sodium hydroxide and an equal volume added to the enzyme solution to prepare the reaction mix (i.e. 50% CBE concentration in reaction mix) and the concentration of glucosidase and/or rhamnosidase is shown in Tables 19 and 20. The reaction mix was heated to 35 degC for the time indicated in Tables 19 and 20, after which the reaction was quenched by addition of an equal volume of MeCN containing 2% acetic acid and shaken at room temperature for 10 mins prior to centrifugation (10 min, 4 degC) to remove particulates. Samples were analysed by UV HPLC using method of Experiment 4-4.
The change in composition of the Left, Middle and Right peaks is shown in Tables 19 and 20. The composition changes by the action of the enzymes depending on the presence or absence of the partner enzyme. The extent of reaction is proportional to the enzyme concentration and the reaction time under these conditions. The tables show data for enzyme concentrations and the reaction times providing for equivalent extents of reaction. The improvement resulting from the mutations introduced for each variant is equal to the fold change in enzyme concentration×time (i.e. fold improvement=(enzyme concentration×time) for preceding variant÷(enzyme concentration×time) for later variant). A cumulative fold improvement over the original enzyme variant is calculated by the product of the individual fold improvements.

Series [2] can be described thus: Example 8: screening of glucosidase variants for deglycosylation of saponins in crude bark extract (FIOP). Format: biochemical, Quillaja saponaria. The note with it: for Cumulative FIOP (cf WT): estimate; for FIOP: fold improvement over parent. As to the method: Libraries of genetic variants encoding mutations in the wild type Modestobacter marinus glucosidase (SEQ ID No. 262) were prepared using molecular biology techniques, enzymes were prepared linked to an N-terminally located His-tag. Single monoclonal colonies were grown in 400 ul of expression medium and protein expressed. Cell pellets were lysed in 200 ul of the relevant buffer (Table 16)
Lysate was diluted appropriately in the relevant buffer to allow a lysate loading of the indicated % loading (1% loading corresponds to use of 2 ul original lysate in a 200 ul reaction). In some experiments a rhamnosidase was also present during the screening reaction (and also in controls, negating any impact on results).
Crude bark extract (CBE) obtained by aqueous extraction of Quillaja saponaria and containing at least 2.80 mg/ml QS-21 (by HPLC-UV). The pH of CBE was adjusted to pH 6 by dropwise addition of 2M NaOH with stirring. The relevant concentration of the relevant glucosidase was added. The appropriate relative volume of pH 6 CBE (160 ul (for 80%) or 150 ul (for 75%)) was added to each well of the reaction plate. The reaction plate was sealed and incubated at the relevant temperature with shaking overnight for between 18 and 22 hours.
The reaction plate was quenched by adding 200 uL of MeCN (2% AcOH, 1 mg/mL hexanophenone) to each well of the plates. The quenched reaction plate was re-sealed and incubated at 20 deg C. with shaking for 10 min. The reaction plate was then centrifuged (10 min, 4 degC).
200 uL was transferred from each well of the quenched plate to the corresponding wells of a fresh 96 well plate and sealed. The plate was analysed by UV HPLC with the method below:
A negative control (a lysate not expressing test enzymes) and a positive control (expressing the parent comparator—wild type or previous variant as appropriate). Fold improvement over parent (FIOP) for the glucosidase (shorter method) is calculated as follows:
% right peak=100*right peak area/(right peak area+left peak area)
Average % right peak area is calculated for negative controls (per plate) and subtracted from all wells to give the increase in % right peak for each well above average negative control Average increase in % right peak is calculated for positive controls per plate
FIOP=observed increase in % right peak divided by average positive control increase

Setting [3] is: glucosidase 0.78 mg/ml + rhamnosidase R5 0.5 mg/ml.
Where [4] appears, read: glucosidase 0.78 mg/ml, no rhamnosidase.
The mark [5] stands for this setting: screen temp 20, pH 6, lysate loading 2.50%, CBE loading 80%, 100 mM Potassium phosphate, Rham Present.
[6] abbreviates: glucosidase 0.39 mg/ml + rhamnosidase R5 0.5 mg/ml.
Setting [7] is: glucosidase 0.39 mg/ml, no rhamnosidase.
Where [8] appears, read: screen temp 35, pH 6, lysate loading 0.28%, CBE loading 75%, 100 mM Sodium acetate, Rham Present.
The mark [9] stands for this setting: glucosidase 6.25 mg/ml + rhamnosidase R5 0.5 mg/ml.
Where [10] appears, read: glucosidase 6.25 mg/ml, no rhamnosidase.
[11] abbreviates: screen temp 35, pH 6, lysate loading 20%, CBE loading 80%, 100 mM Potassium phosphate, Rham None.

B1: Variant G3: engineered glucosidase polypeptide, variant of Modestobacter marinus glucosidase SEQ ID No. 262 (protein)
chain: MNPASSTRTDTMTDTTARTDSRLTDALAALSLEQKVQLLTGRDYWNTWPIEEIGLRRILVSDGPSGVRGEVWDERDPSLNLPSATALASAWDPDIARRYGAAAAVEARRKGVDVVLGPTINLHRSPLGGRHFEAFSEDPVLTAELAAAYVTGVQDNGVGATPKHYVANDFETDRFTVDVRADERTLRELYLLAFEKAVTEARAWLVMSAYNGINGATATENDLLETPLNSEWGFDGVVVSDWTAVRSLESARSSQDLVMPGPVGPWGDALVEAVRTGAIDESVVDRKVLRILTLAQRVGALEGSPAIDPVWVEDGVALAREAAVEGTVLLENRDELPWDATSLRKVAVIGNNAAAAMTQGGGSANVLPEYTVSPLDGVRAALPDAEVSYSLGAVVQDGLVELPLAELTNPVTGGPGLRARFLTADGAELFGEDRRKSVLVYQGGDAPIAAAATYELTARWTPTESQTVRLGFFCFGAAQLYVDGELLVESDLQPSGTDLGAAFMNPLTASAEVELVAGKPVDVRLVHDLSAKEGFAAHALFLQLGTEPAEVDEDALIAEAAEAAEAADVVLVVVGTNSIVESEGYDRESLSLPGRQDDLVRAVVAANPRTVVLVNAGAPVLLPWRDDVAALLLGWFGGQEFGNAVADVLLGVAEPGGRLPTTWPAAEADVPVLSCTPVDGVVEYTEGIHIGYRAWLRSGATPAYWFGSGQGYTCVELTGVEAPSRARPGEIVTVSVEVANRGERDGKQVVQVYAEKPDSTVDRPVRWLVGSAPVRVPAGQTAQVEVAVPTRYLAHWAGGWQYEPGVYRLRVGTTAVELPLETTLEVSA
modifications: Seq ID No. 262 with mutations T365N, R357M, A473F, L474C, I475F, F44Y, F442Q
Turning to B1, in series [1] (setting [3]), the “% change in Left Peak” value is −31%, the “% change in Middle Peak” value is −79%, the “% change in Right Peak” value is listed as 270% and the “Cumulative Fold improvement in primary enzyme loading × time” value (from here on “Cumulative Fold improvement”) was found to be 64. In addition, in series [1] (setting [3]), the “Fold improvement in primary enzyme loading × time” value was found to be 2.0, the “% Right Peak” value was 70%, the “% Left Peak” value stood at 21% and the “% Middle Peak” value is 9%. Moreover, in series [1] (setting [4]), the “% change in Left Peak” value is reported as −19%, the “% change in Middle Peak” value is −50%, the “% change in Right Peak” value is 206% and the “Cumulative Fold improvement” value came out at 64. In addition, in series [1] (setting [4]), the “Fold improvement in primary enzyme loading × time” value stood at 2.0, the “% Right Peak” value worked out at 53%, the “% Left Peak” value came to 24% and the “% Middle Peak” value was 22%. Besides, in series [2] (setting [5]), the “Cumulative FIOP (cf WT)” value is 125 and the FIOP came out at 2.5.

B2: Variant G4: engineered glucosidase polypeptide, variant of Modestobacter marinus glucosidase SEQ ID No. 262 (protein)
chain: B1 chain with V263L, F541I
modifications: Seq ID No. 262 with mutations T365N, R357M, A473F, L474C, I475F, F44Y, F442Q, V263L, F541I
For B2, in series [1] (setting [6]), the “% change in Left Peak” value is given as −28%, the “% change in Middle Peak” value is reported as −79%, the “% change in Right Peak” value was 267% and the “Cumulative Fold improvement” value is listed as 128. In addition, in series [1] (setting [6]), the “Fold improvement in primary enzyme loading × time” value is 2.0, the “% Right Peak” value was determined as 69%, the “% Left Peak” value was found to be 22% and the “% Middle Peak” value was 9%. In addition, in series [1] (setting [7]), the “% change in Left Peak” value is −22%, the “% change in Middle Peak” value is −49%, the “% change in Right Peak” value is 208% and the “Cumulative Fold improvement” value was 128. Also, in series [1] (setting [7]), the “Fold improvement in primary enzyme loading × time” value was 2.0, the “% Right Peak” value is reported as 54%, the “% Left Peak” value was 23% and the “% Middle Peak” value was determined as 23%. For the same molecule, in series [2] (setting [8]), the “Cumulative FIOP (cf WT)” value is on record as 300 and the FIOP is recorded as 2.4.

B3: Variant G1: engineered glucosidase polypeptide, variant of Modestobacter marinus glucosidase SEQ ID No. 262 (protein)
chain: B1 chain with Y44F, M357R, Q442F, F473A, C474L, F475I
modifications: Seq ID No. 262 with mutation T365N
As to B3, in series [1] (setting [9]), the “% change in Left Peak” value is −39%, the “% change in Middle Peak” value was −64%, the “% change in Right Peak” value was determined as 253% and the “Cumulative Fold improvement” value is given as 8. Besides, in series [1] (setting [9]), the “Fold improvement in primary enzyme loading × time” value was found to be 8.0, the “% Right Peak” value was found to be 66%, the “% Left Peak” value stood at 18% and the “% Middle Peak” value stood at 16%. Besides, in series [1] (setting [10]), the “% change in Left Peak” value is −8%, the “% change in Middle Peak” value is recorded as −59%, the “% change in Right Peak” value is recorded as 209% and the “Cumulative Fold improvement” value was 8. In series [1] (setting [10]), the “Fold improvement in primary enzyme loading × time” value amounted to 8.0, the “% Right Peak” value came to 54%, the “% Left Peak” value is given as 28% and the “% Middle Peak” value is recorded as 18%. Also, in series [2] (setting [11]), the “Cumulative FIOP (cf WT)” value is recorded as 5 and the FIOP is given as 5.
